# B1: TKAESAWLFRMWYNFDHNYLKPLLTHSGPPLTTTLPACCGPIARCLTSPQAYENQEQLKDDD (protein)
# chain: TKAESAWLFRMWYNFDHNYLKPLLTHSGPPLTTTLPACCGPIARCLTSPQAYENQEQLKDDD
# notes: NHE6 cytoplasmic tail fragment 527-588, expressed in cells from a plasmid
# Key:
# [1] = system: HT-1080 overexpressing NHE6^527-588 peptide; test: MTT cell viability assay in HT-1080 expressing NHE6^527-588 or scrambled peptide; assay type: cell-based, human; details: HT-1080, overexpression of the fragment
# Description: peGFP-N3-NHE6 was generously provided by Hiroshi Kanazawa (Osaka University, Japan). pcDNA3-HA/NHE6 was constructed from peGFP-N3-NHE6. For this, the entire NHE6 coding sequence was excised with BamHI and EcoRI restriction enzymes and cloned in pcDNA3-HA vector. pcDNA3-HA/NHE6^527-588 was designed from pcDNA3-HA/NHE6 using the following primers: […]
# HT-1080 cells were stably transfected with Polyethylenimine (PEI, MirusBio) and positive cells were selected with Geneticin™ (G418) at 400 μg/mL. In the case of MDA-MB-231 cells, plasmids were transfected using Lipofectamine™ 2000 ([…]) and G418 was added to cell cultures at a concentration of 2 mg/mL.
# Cells (5×10^3) were cultured in 96-well plates and pre-incubated under 21% O2 or 1% O2 for 4 h following the addition of drugs for 72 h. Cell viability was measured using the 3-(4,5-dimethylthiazol-2-yl)-2,5-diphenyltetrazolium bromide (MTT) dye (Life Technologies) according to manufacturer's instructions. Because hypoxic conditions may affect the reduction of MTT to formazan, incubation of all cell cultures with MTT were performed under normoxic conditions. Each experiment was performed in triplicate and at least three independent experiments were performed. Log-scale dose-response data were plotted on a graph and a three-parameter non-linear regression was applied to determine IC50 values. For calculation of the IC50s, both normoxic and hypoxic drug-treated samples were normalized with their untreated counterpart.
# The middle portion (position 527-588) of the NHE6 cytoplasmic tail has previously been reported to interact with RACK1^31. Stable HT-1080 cells expressing the NHE6^527-588 fragment or a scrambled counterpart were generated.
# [2] = system: HT-1080 cells; test: Intracellular localization of Dox by confocal live-cell imaging, HT-1080; assay type: cell-based, human; details: HT-1080, expression of the peptide, 1% O2, 4 h
# Description: Cells were cultured in 25 mm-diameter glass coverslips (Thermo Fisher Scientific) and incubated under various conditions (as indicated in the FIG. legends). Cells were then incubated for 2 h in a medium containing Dox (2 μM). After the incubation period, cells were washed to remove excess Dox and left in drug-free media for 10 min. […] Coverslips were mounted on glass slides and placed on a 37° C. warmed stage of an Olympus Fluoview™ FV1000 (Olympus, Tokyo, Japan) confocal laser scanning microscope. Dox was excited with a green helium neon laser (543 nm) and emitted fluorescence intensity was measured. Images were acquired on the same day, typically from 10-20 cells of similar size from each experimental condition, using identical instrument settings.
# [3] = system: HT-1080 cells; test: Intracellular pH measurement (HPTS/SNARF-1) by confocal microscopy, HT-1080; assay type: cell-based, human; details: HT-1080, expression of the peptide, 1% O2, 4 h
# Description: The pH sensing ratiometric dyes SNARF-1 and HPTS (Life Technologies) were used simultaneously for pH measurement of both cytoplasmic (C-SNARF-1) and endosomal/lysosomal (HPTS) compartments as previously described^30. Briefly, cells were cultured in 35 mm petri dishes (BD Biosciences) and used at 50% confluence. For endocytic labeling, cells were incubated overnight with HPTS (1 mM), washed, followed by a 20-min incubation with SNARF-1 (5 μM) to label the cytoplasmic compartment. Living cells were analyzed using an Olympus Fluoview™ FV1000 confocal microscope. Fluorescence emissions of both pH-sensing probes were recorded and subsequently analyzed as described^30.
# [4] = system: NHE6; test: NHE6 localization (cell-surface biotinylation, EEA1 immunofluorescence) in HT-1080; assay type: cell-based, human; details: HT-1080, expression of the peptide, 1% O2, 4 h
# Description: Biotinylation steps were performed at […] Cells were grown on circular 15-mm diameter glass coverslips (Thermo Fisher Scientific) and incubated at 21% or 1% O2. Cells were then washed with PBS containing 1 mM CaCl2 and 0.5 mM MgCl2 (PBSCM) and incubated for 5 min with 0.3 mg/ml of EZ-Link Sulfo-NHS-SS-Biotin (Pierce) in PBSCM. Unreacted biotin was quenched using 100 mM glycine. Cells were fixed for 10 min at room temperature using 1% PFA in PBS. Prior to staining, cells were blocked with 5% of BSA for 1 h at room temperature. Biotinylated cells were stained with 5 μg/ml Streptavidin Texas Red (Invitrogen) for 1 h at 4° C. Coverslips were washed and mounted on a microscope slide using Vectashield mounting media (Vector labs).
# Cultured cells were fixed with 1% PFA for 10 min at room temperature, permeabilized with saponin (0.05% in PBS) for 20 min, and blocked with 2% BSA in PBS for 30 min. Cells were then incubated with the appropriate primary and secondary antibodies as follows: anti-EEA1 (1/500), anti-Rab7 (1/500) and fluorophore-conjugated secondary antibodies (1/1000). Images were recorded using an Olympus Fluoview™ FV1000 confocal microscope using a 63× oil immersion objective.
# [5] = system: NHE6-RACK1 interaction; test: Co-immunoprecipitation of NHE6 with RACK1 in HT-1080; assay type: cell-based, human; details: HT-1080, ectopic expression of the sequence, 1% O2, 4 h
# Description: Cells were lysed on ice in NP-40-containing buffer (50 mM Tris-HCl pH 8.0, 150 mM NaCl, 1% NP-40, 5 mM EDTA, phosphatase and protease inhibitors). Cell lysates were centrifuged at 13,000 rpm at 4° C. and protein concentration determined using the BCA protein assay (Thermo Fisher Scientific). After a pre-clearing step with protein A/G-agarose beads (GE Healthcare), protein complexes were immunoprecipitated overnight at 4° C. Samples were incubated in SDS-loading buffer for 30 minutes at room temperature to avoid transmembrane protein aggregates upon heating in a boiling water bath. Proteins were separated by SDS-PAGE electrophoresis, transferred to a PVDF membrane and immunoblotting was performed as described, using anti-NHE6 (1:1000), anti-NHE9 (1:1000) anti-RACK1 (1:2000), anti-tubulin (1:5000), anti-actin (1:5000) anti-HA (1:1000), anti-PKC (1:200), anti-phospho PKC substrate (1:1000), anti-LAMP2 (1:200), anti-P-glycoprotein (1:200) and HRP-conjugated secondary antibodies (1/10 000)^66.
# [6] = system: HT-1080 tumor xenografts; test: Chorioallantoic membrane (CAM) xenograft assay, HT-1080; assay type: in vivo, chick embryo; details: NHE6^527-588-overexpressing HT-1080 xenografts on CAM, 0.5 μM Dox
# Description: (§1) Fertilized eggs from white leghorn chicken were obtained from Public Health Agency of Canada (Nepean, ON). Ethics approval was obtained from the Ethics Committee on Animal Research of the University of Sherbrooke and all experimental procedures involving embryos were conducted in accordance with the regulations of the Canadian Council on Animal Care. Eggs were incubated in an Ova-Easy egg incubator (Brinsea) at 37° C. with 60% humidity. At Day 3, eggs were cracked as described^67. At Day 9, HT-1080 and MDA-MB-231 cell suspensions (1×10^6 and 2×10^6 cells, respectively) were mixed (1:1) with growth factor reduced Matrigel (BD Biosciences) in a total volume of 20 μl. Cell grafts were placed on top of the CAM and eggs were returned to the incubator for 96 h until Day 13 (n>6 chick embryos per cell line). When mentioned, 50 μl of Dox were added topically to the formed tumors (Day 13 after tumor cell grafting). At Day 16, chick embryos were euthanatized by decapitation. Tumors were removed and tumor volumes were calculated using the formula: (Dd^2/3). For RNA quantification, tumors were immediately snap-frozen in liquid nitrogen and kept at −80° C. until RNA extraction using the Trizol reagent.
# (§2) To determine whether these observations were of relevance to tumor therapy in vivo, the inventors used an ex ovo chorioallantoic membrane (CAM) xenograft model in live chicken embryos^40. MDA-MB-231 or HT-1080 cells, or cells expressing either the NHE6^527-588 competing fragment or its scrambled counterpart were inoculated onto the CAM of 9-day-old chick embryos. After allowing 3 days for cells to engraft, tumors were treated with Doxorubicin or PBS. Four days later, chick embryos were euthanized, and tumors were removed for analysis (FIG. 10A). To first ascertain that tumors implanted in CAM developed hypoxia, total mRNA was extracted from tumors generated by untransfected HT-1080 cells and gene expression of the hypoxic markers CA9, GLUT1 and MCT4 was measured by qPCR. […]
# [7] = system: MDA-MB-231 tumor xenografts; test: Chorioallantoic membrane (CAM) xenograft assay, MDA-MB-231; assay type: in vivo, chick embryo; details: NHE6^527-588-overexpressing MDA-MB-231 xenografts on CAM, 1 μM Dox
# Description: as §1, §2
molecule,measurement,setting,value
B1,increase in drug (Dox) sensitivity,[1]; hypoxia,2.8 fold
same,sensitivity of the cells to Dox,[1]; normoxic conditions,did not change
same,hypoxia-induced diminution in nuclear Dox and Dox accumulation within endosomes,[2],greatly impaired
same,hypoxia-induced intravesicular hyperacidification,[3],greatly impaired
same,hypoxia-induced NHE6 relocalization from endosomes to the plasma membrane,[4],greatly impaired
same,hypoxia-induced interaction of NHE6 with RACK1,[5],prevented
same,tumor volume compared to xenografts overexpressing a control peptide,[6],small but significant decrease in tumor volume
same,tumor volume compared to xenografts overexpressing a control peptide,[7],small but significant decrease in tumor volume
